Reference: patent publication US20260000780A1, “B-LYMPHOCYTE SPECIFIC AMATOXIN ANTIBODY CONJUGATES” (priority 2021, published 2026)

Assays:
[1] = target: RNA-polymerase II (Homo sapiens, UniProt P24928+P30876); conditions: read-out: KD of the complex between amanitin and RNA-polymerase II; cited from earlier work
[2] = tested on: MEC-2 tumor xenograft; test: Disseminated MEC-2 tumor xenograft model; assay type: in vivo, CB17 Scid mice; conditions: day 138 after treatment
Procedure: Cytotoxic efficacy studies in vivo were performed using various anti-CD37 antibody amatoxin conjugates in a disseminated MEC-2 tumor xenograft model over 140 days of treatment.
Tumor cell inoculation was done on day −3 by i.v. injection of 2.5×10^6 MEC-2 cells in CB17 Scid mice. Treatment was performed on day 0 by single dose i.v. injection at maximum tolerable dose (MTD) of ⅛ and MTD of 1/16 doses, respectively. Readout of the study was body weight and survival. Results are shown in FIG. 10 (body weight) and FIG. 11 (survival) at day 138 after treatment. All groups treated with conjugate gained body weight as normal, in contrast to the control group.
Treatment groups are defined in Table 4. Group 10 (chHH1-HDP-LALA-D265C, p.o., single dose; 10 mg/kg) was excluded from analysis. Group 11 (Ibrutinib) was treated with Ibrutinib p.o. 5x/w for 3 weeks at a dose 25 mg/kg.

[3] = tested on: Richter syndrome cells (PDX RS1316); test: Richter's syndrome patient-derived xenograft (PDX) model, intravenous; assay type: in vivo, CB17 Scid mice; conditions: for efficacy in treating RS / tolerability of a single dose: single dose at different doses, 15 days post engraftment
Text: The patient-derived xenograft (PDX) model for Richter's syndrome were adapted from Cancer Res (2018); 78 (13); 3413-20 with modifications.
Briefly, a total of 2×10^7 primary Richter syndrome cells from peripheral blood or lymph nodes were resuspended in Matrigel (BD Biosciences) and subcutaneously injected (double flank) in 8-week old CB17 Scid mice immunocompromised mice and left to engraft. Tumor masses were then collected, partially disrupted, and tumor cells reinjected as a single-cell suspension in Matrigel. These steps were repeated several times to obtain stable models of Richter syndrome.
For the intravenous model, 10^7 Richter syndrome cells purified from tumor masses were resuspended in PBS and injected in the tail vein of the mice. Mice were injected with a single dose of the conjugates XXIII, XXIV, or XXVI as indicated. All mice within the PBS control group died within 68 days post engraftment. One animal in the group receiving conjugate XXVI at a dose of 5 mg/kg i.v. died at day 90 post engraftment.
To assess residual RS disease activity in the organs of engrafted animals mice were euthanized and peripheral blood and organs (kidneys, spleen, bone marrow, lung, liver, and brain) collected and disease spread evaluated by flow cytometry, using anti-human antibodies (CD45PerCPCy5.5/CD19APC/CD20FITC).

[4] = tested on: Raji-Luc tumor xenograft; test: Disseminated Raji-Luc tumor xenograft model; assay type: in vivo, CB17 Scid mice; conditions: single dose i.v., day 89 after treatment
Procedure: Cytotoxic efficacy studies in vivo were performed using various anti-CD37 antibody amatoxin conjugates in a disseminated Raji-Luc tumor xenograft model over 89 days of treatment.
Tumor cell inoculation was done on day-3 by i.v. injection of 2.5×10^6 Raji-Luc cells in CB17 Scid mice. Treatment was performed on day 0 by single dose i.v. injection at maximum tolerable dose (MTD) of 1/16 and MTD of 1/64 doses of cynomolgus MTD, respectively. Readout of the study was body weight, bioluminescence and survival. Results are shown in FIG. 10 (body weight), FIG. 11 (bioluminescence) and FIG. 12 (survival) at day 89 after treatment. All groups treated with conjugate gained body weight as normal, in contrast to the control group.

Which Kd [1] does the source give for amanitin here?
The Kd was 3 nM.

With C=CC(=O)N1CCC[C@@H](n2nc(-c3ccc(Oc4ccccc4)cc3)c3c(N)ncnc32)C1 [Ibrutinib, reference compound] as the molecule, how does the Alive animals ([2]; 25 mg/kg p.o. 5×/w for 3 weeks) read?
Its Alive animals is 0/10.

B1: conjugate XXVI (conjugate)
heavy: EIQLQQSGPELVKPGASVKVSCKASGYSFTDYNMYWVKQSHGKSLEWIGYIDPYNGDTTYNQKFKGKATLTVDKSSSTAFIHLNSLTSEDSAVYYCARSPYGHYAMDYWGQGTSVTVSSASTKGPSVFPLAPSSKSTSGGTAALGCLVKDYFPEPVTVSWNSGALTSGVHTFPAVLQSSGLYSLSSVVTVPSSSLGTQTYICNVNHKPSNTKVDKKVEPKSCDKTHTCPPCPAPEAAGGPSVFLFPPKPKDTLMISRTPEVTCVVVCVSHEDPEVKFNWYVDGVEVHNAKTKPREEQYNSTYRVVSVLTVLHQDWLNGKEYKCKVSNKALPAPIEKTISKAKGQPREPQVYTLPPSREEMTKNQVSLTCLVKGFYPSDIAVEWESNGQPENNYKTTPPVLDSDGSFFLYSKLTVDKSRWQQGNVFSCSVMHEALHNHYTQKSLSLSPGK
light: DIVMTQSHKLLSTSVGDRVSITCKASQDVSTAVDWYQQKPGQSPKLLINWASTRHTGVPDRFTGSGSGTDYTLTISSMQAEDLALYYCRQHYSTPFTFGSGTKLEIKRTVAAPSVFIFPPSDEQLKSGTASVVCLLNNFYPREAKVQWKVDNALQSGNSQESVTEQDSKDSTYSLSSTLTLSKADYEKHKVYACEVTHQGLSSPVTKSFNRGEC
With B1 as the molecule, how does the “animals that died in the treated group” value ([3]; 5 mg/kg i.v. single dose, n=4, death at day 90 post engraftment) read?
Its value is “One animal”.

And the “efficacy in treating RS” value [3]?
Its value is “effective in treating RS”.

And the “tolerability of a single dose” value [3]?
The value was “well tolerated”.

B2: Conjugate XXV (conjugate)
heavy chain: B1 heavy
light chain: B1 light
Which results are given for B2?
Alive animals ([2]; 0.94 mg/kg (MTD 1/16), i.v. single dose): 8/10; Alive animals ([2]; 1.88 mg/kg (MTD 1/8), i.v. single dose): 9/10; Alive animals ([4]; 0.188 mg/kg (MTD 1/64)): 9/10; Alive animals ([4]; 0.75 mg/kg (MTD 1/16)): 10/10

B3: Conjugate XXIV (conjugate)
heavy: B1 heavy
light: B1 light
Which results are given for B3?
efficacy in treating RS [3]: effective in treating RS; tolerability of a single dose [3]: well tolerated; residual RS disease activity in organs (flow cytometry CD45/CD19/CD20) ([3]; single dose, 5 mg): significantly reduce; Alive animals ([2]; 1.25 mg/kg (MTD 1/16), i.v. single dose): 4/10; Alive animals ([2]; 2.5 mg/kg (MTD 1/8), i.v. single dose): 6/10; Alive animals ([4]; 0.188 mg/kg (MTD 1/64)): 9/10; Alive animals ([4]; 0.75 mg/kg (MTD 1/16)): 10/10
